Sequences and labels used below:
B1: HET-S (full-length, residues 1-289) (natural protein, Podospora anserina, UniProt B2ACC7 1-289, looked up)
chain: MSEPFEIVAGALGVAGLFNNCVACFEYVQLGRHFGRDYERCQLRLDIAKVRLSRWGEAVQINDDPRFHSSAPIDKSVQLAKSIVEEILLLFESAQKTSKRYELVADQQDLVVFEDKDMKPIGRALHRRLKDLVSRRQKQTSLAKKTAWALYDGKSLEKIVDQVAGFVDELEKAFPIEAVCHKLAENEIEEVEDEASLTILKDAAGGIDAAMSDAAAQKIDAIVGRNSAKDIRTEKRARVQLGNVVTAAALHGEIRISDQTTNSVETVVGKGESKVLIGNEYGGKGFWDN
notes: also called HET-S protein; recombinant HET-S
B2: HET-s(218-289), prion-forming domain of HET-s (domain or fragment, Podospora anserina, UniProt Q03689 218-289, looked up)
chain: KIDAIVGRNSAKDIRTEERARVQLGNVVTAAALHGGIRISDQTTNSVETVVGKGESRVLIGNEYGGKGFWDN
notes: also called HET-s PFD; HET-s(218-289) amyloid seeds

One series deals with T1, HET-s (full-length) (Podospora anserina, UniProt Q03689 1-289).
T1 construct: also called unlabeled monomeric full-length HET-s; HET-s prion
T1 sequence (looked up): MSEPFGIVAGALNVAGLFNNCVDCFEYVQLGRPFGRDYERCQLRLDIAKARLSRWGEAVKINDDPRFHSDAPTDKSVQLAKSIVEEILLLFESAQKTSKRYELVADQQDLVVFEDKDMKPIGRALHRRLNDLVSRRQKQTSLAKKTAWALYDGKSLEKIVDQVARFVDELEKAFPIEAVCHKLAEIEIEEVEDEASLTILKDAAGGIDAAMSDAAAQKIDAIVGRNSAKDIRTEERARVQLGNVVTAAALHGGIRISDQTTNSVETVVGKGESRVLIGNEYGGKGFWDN
In words: solid-state NMR (NCA 2D and 3D co). The following applies: both partners purified.

Series [1] deals with the molecule itself. In words: solid-state NMR (NCA 2D and 3D co).
In series [2] the target is B1. Description: solid-state NMR (PAIN 13C-15N pol). The following applies: both partners purified.
Series [3] deals with the molecule itself. Description: solid-state NMR (PAIN 13C-15N pol).

In the case of B1, the binding result (in the series with HET-s (full-length); in series [1]) was “binds” throughout.
As to B2, the binding result in series [2] and in series [3] was “binds” each time.

Source of the values: publication PMC3531502 (PLoS Biology, 2012).
